Source: patent US20190071500A1 (ORIONIS BIOSCIENCES, published 2019)

target: T1, His6-tagged extracellular domain of human CD8A (human, UniProt P01732 22-182); test: ELISA, crude periplasmic extracts on coated His-tagged extracellular domain of human CD8A
T1 construct: extracellular domain; coated on the solid phase for panning and for the ELISA screening; also called Hiss-tagged extracellular domain of human CD8A; not shown: His tag
Method: Three consecutive rounds of panning of a VHH library were performed on solid-phase coated Hiss-tagged extracellular domain of human CD8A (200 μg/ml, 20 μg/well). The enrichment for antigen-specific phages was assessed after each round of panning by comparing the number of phagemid particles eluted from antigen-coated wells with the number of phagemid particles eluted from only-blocked wells (negative control wells). […] 285 colonies (95 & 190 from 2nd and 3rd rounds, respectively) were randomly selected and analyzed by ELISA for the presence of antigen-specific VHHs in their periplasmic extracts (ELISA using crude periplasmic extracts including soluble VHHs). The antigen used for the ELISA screening was the same as the one used for immunization and panning. Out of these 285 colonies, 64 colonies (3 and 61 from 2nd and 3rd rounds of panning, respectively) scored positive in this assay. Based on sequence data, the 64 positive colonies represented 16 different VHHs. The 16 different VHHs belong to 6 different CDR3 groups. Table 2 below provides a description of 3 clones representing the 3 different anti-human CD8A VHH genes. E. coli TG1 harboring recombinant phagemid pMECS containing anti-human CD8A VHH sequences was generated and stored at −80° C. The vector pMECS codes for ampicillin resistance.

T1 sequence (P01732 22-182): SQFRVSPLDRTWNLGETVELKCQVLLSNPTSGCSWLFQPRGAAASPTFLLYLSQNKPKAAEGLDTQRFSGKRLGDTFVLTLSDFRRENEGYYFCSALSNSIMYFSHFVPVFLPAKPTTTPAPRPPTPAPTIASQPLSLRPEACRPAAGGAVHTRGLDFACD

| binding result | Binder |
| --- | --- |
| binds | R3HCD27 (VHH, not shown: His tag (His-tagged VHHs); the vectors described carry His6 at the C-terminus; exact junction of the tested form not sta) VHH: QVQLQESGGGSVQPGGSLRLSCAASGFTFDDYAMSWVRQVPGKGLEWVSTINWNGGSAEYAEPVKGRFTISRDNAKNTVYLQMNSLKLEDTAVYYCAKDADLVWYNLSTGQGTQVTVSS |
| binds | R3HCD129 (VHH, not shown: His tag (His-tagged VHHs); the vectors described carry His6 at the C-terminus; exact junction of the tested form not sta) VHH: QVQLQESGGGLVQPGGSLRLSCAASGFTFDDYAMSWVRQVPGKGLEWVSTINWNGGSAEYAEPVKGRFTISRDNAKNTVYLQMNSLKLEDTAVYYCAKDADLVWYNLRTGQGTQVTVSS |
| binds | R2HCD26 (VHH, not shown: His tag (His-tagged VHHs); the vectors described carry His6 at the C-terminus; exact junction of the tested form not sta) VHH: QVQLQESGGGLVQAGGSLRLSCAASGFTFDDYAIGWFRQAPGKEREGVSCIRVSDGSTYYADPVKGRFTISSDNAKNTVYLQMNSLKPEDAAVYYCAAGSLYTCVQSIVVVPARPYYDMDYWGKGTQVTVSS |
